# Laboratory results: publication PMC2796330
# Biological target: the unphosphorylated T-PY motif (Smad2 or Smad3 peptide)
# Experiment: ITC
substance,measurement,value
recombinant Nedd4L WW2 domain (domain or fragment),fold lower affinity than for the pT-PY motif peptide,7 to 15 fold
